Results from patent US20170190753A1 (LABORATOIRE FRANCAIS DU FRACTIONNEMENT ET DES …, published 2017).

B1: pCEP4-1NT7-15CT20 (other)
chain: EDCNELPPRRNTEILTGSWSDQTYPEGTQAIYKCRPGYRSLGNVIMVCRKGEWVALNPLRKCQKRPCGHPGDTPFGTFTLTGGNVFEYGVKAVYTCNEGYQLLGEINYRECDTDGWTNDIPICEVVKCLPVTAPENGKIVSSAMEPDREYHFGQAVRFVCNSGYKIEGDEEMHCSDDGFWSKEKPKCVEISCKSPDVINGSPISQKIIYKENERFQYKCNMGYEYSERGDAVCTESGWRPLPSCEEKSCDNPYIPNGDYSPLRIKHRTGDEITYQCRNGFYPATRGNTAKCTSTGWIPAPRCTLKPCDYPDIKHGGLYHENMRRPYFPVAVGKYYSYYCDEHFETPSGSYWDHIHCTQDGWSPAVPCLRKCYFPYLENGYNQNYGRKFVQGKSIDVACHPGYALPKAQTTVTCMENGWSPTPRCIRVKTGASGCSQPPQIEHGTINSSRSSQESYAHGTKLSYTCEGGFRISEENETTCYMGKWSSPPQCEGLPCKSPPEISHGVVAHMSDSYQYGEEVTYKCFEGFGIDGPAIAKCLGEKWSHPPSCIKTDCLSLPSFENAIPMGEKKDVYKAGEQVTYTCATYYKMDGASNVTCINSRWTGRPTCRDTSCVNPPTVQNAYIVSRQMSKYPSGERVRYQCRSPYEMFGDEEVMCLNGNWTEPPQCKDSTGKCGPPPPIDNGDITSFPLSVYAPASSVEYQCQNLYQLEGNKRITCRNGQWSEPPKCLHPCVISREIMENYNIALRWTAKQKLYSRTGESVEFVCKRGYRLSSRSHTLRTTCWDGKLEYPTCAKRGGSGHHHHHH
B2: pCEP4-1NT7-9CT20 (other)
chain: EDCNELPPRRNTEILTGSWSDQTYPEGTQAIYKCRPGYRSLGNVIMVCRKGEWVALNPLRKCQKRPCGHPGDTPFGTFTLTGGNVFEYGVKAVYTCNEGYQLLGEINYRECDTDGWTNDIPICEVVKCLPVTAPENGKIVSSAMEPDREYHFGQAVRFVCNSGYKIEGDEEMHCSDDGFWSKEKPKCVEISCKSPDVINGSPISQKIIYKENERFQYKCNMGYEYSERGDAVCTESGWRPLPSCEEKSCDNPYIPNGDYSPLRIKHRTGDEITYQCRNGFYPATRGNTAKCTSTGWIPAPRCTLKPCDYPDIKHGGLYHENMRRPYFPVAVGKYYSYYCDEHFETPSGSYWDHIHCTQDGWSPAVPCLRKCYFPYLENGYNQNYGRKFVQGKSIDVACHPGYALPKAQTTVTCMENGWSPTPRCIRVKTGASGCDIPVFMNARTKNDFTWFKLNDTLDYECHDGYESNTGSTTGSIVCGYNGWSDLPICYERECELPKIDVHLVPDRKKDQYKVGEVLKFSCKPGFTIVGPNSVQCYHFGLSPDLPICKEQVQSCGPPPELLNGNVKEKTKEEYGHSEVVEYYCNPRFLMKGPNKIQCVDGEWTTLPVCIVEESTCGDIPELEHGWAQLSSPPYYYGDSVEFNCSESFTMIGHRSITCIHGVWTQLPQCVAIDKLKKCKSSNLIILEEHLKNKKEFDHNSNIRYRCRGKEGWIHTVCINGRWDPEVNCSMAQIQLCPPPPQIPNSHNMTTTLNYRDGEKVSVLCQENYLIQEGEEITCKDGRWQSIPLCVEKIPCSQPPQIEHGTINSSRSSQESYAHGTKLSYTCEGGFRISEENETTCYMGKWSSPPQCEGLPCKSPPEISHGVVAHMSDSYQYGEEVTYKCFEGFGIDGPAIAKCLGEKWSHPPSCIKTDCLSLPSFENAIPMGEKKDVYKAGEQVTYTCATYYKMDGASNVTCINSRWTGRPTCRDTSCVNPPTVQNAYIVSRQMSKYPSGERVRYQCRSPYEMFGDEEVMCLNGNWTEPPQCKDSTGKCGPPPPIDNGDITSFPLSVYAPASSVEYQCQNLYQLEGNKRITCRNGQWSEPPKCLHPCVISREIMENYNIALRWTAKQKLYSRTGESVEFVCKRGYRLSSRSHTLRTTCWDGKLEYPTCAKRGGSGHHHHHH
B3: pCEP4-1NT4-15CT20 (other)
chain: EDCNELPPRRNTEILTGSWSDQTYPEGTQAIYKCRPGYRSLGNVIMVCRKGEWVALNPLRKCQKRPCGHPGDTPFGTFTLTGGNVFEYGVKAVYTCNEGYQLLGEINYRECDTDGWTNDIPICEVVKCLPVTAPENGKIVSSAMEPDREYHFGQAVRFVCNSGYKIEGDEEMHCSDDGFWSKEKPKCVEISCKSPDVINGSPISQKIIYKENERFQYKCNMGYEYSERGDAVCTESGWRPLPSCEEKSGASGCSQPPQIEHGTINSSRSSQESYAHGTKLSYTCEGGFRISEENETTCYMGKWSSPPQCEGLPCKSPPEISHGVVAHMSDSYQYGEEVTYKCFEGFGIDGPAIAKCLGEKWSHPPSCIKTDCLSLPSFENAIPMGEKKDVYKAGEQVTYTCATYYKMDGASNVTCINSRWTGRPTCRDTSCVNPPTVQNAYIVSRQMSKYPSGERVRYQCRSPYEMFGDEEVMCLNGNWTEPPQCKDSTGKCGPPPPIDNGDITSFPLSVYAPASSVEYQCQNLYQLEGNKRITCRNGQWSEPPKCLHPCVISREIMENYNIALRWTAKQKLYSRTGESVEFVCKRGYRLSSRSHTLRTTCWDGKLEYPTCAKRGGSGHHHHHH
B4: pCEP4-1NT9-19CT20 (other)
chain: EDCNELPPRRNTEILTGSWSDQTYPEGTQAIYKCRPGYRSLGNVIMVCRKGEWVALNPLRKCQKRPCGHPGDTPFGTFTLTGGNVFEYGVKAVYTCNEGYQLLGEINYRECDTDGWTNDIPICEVVKCLPVTAPENGKIVSSAMEPDREYHFGQAVRFVCNSGYKIEGDEEMHCSDDGFWSKEKPKCVEISCKSPDVINGSPISQKIIYKENERFQYKCNMGYEYSERGDAVCTESGWRPLPSCEEKSCDNPYIPNGDYSPLRIKHRTGDEITYQCRNGFYPATRGNTAKCTSTGWIPAPRCTLKPCDYPDIKHGGLYHENMRRPYFPVAVGKYYSYYCDEHFETPSGSYWDHIHCTQDGWSPAVPCLRKCYFPYLENGYNQNYGRKFVQGKSIDVACHPGYALPKAQTTVTCMENGWSPTPRCIRVKTCSKSSIDIENGFISESQYTYALKEKAKYQCKLGYVTADGETSGSITCGKDGWSAQPTCIKSCDIPVFMNARTKNDFTWFKLNDTLDYECHDGYESNTGSTTGSIVCGYNGWSDLPICYEREGASGCGPPPPIDNGDITSFPLSVYAPASSVEYQCQNLYQLEGNKRITCRNGQWSEPPKCLHPCVISREIMENYNIALRWTAKQKLYSRTGESVEFVCKRGYRLSSRSHTLRTTCWDGKLEYPTCAKRGGSGHHHHHH
B5: pCEP4-1NT9-13CT20 (other)
chain: EDCNELPPRRNTEILTGSWSDQTYPEGTQAIYKCRPGYRSLGNVIMVCRKGEWVALNPLRKCQKRPCGHPGDTPFGTFTLTGGNVFEYGVKAVYTCNEGYQLLGEINYRECDTDGWTNDIPICEVVKCLPVTAPENGKIVSSAMEPDREYHFGQAVRFVCNSGYKIEGDEEMHCSDDGFWSKEKPKCVEISCKSPDVINGSPISQKIIYKENERFQYKCNMGYEYSERGDAVCTESGWRPLPSCEEKSCDNPYIPNGDYSPLRIKHRTGDEITYQCRNGFYPATRGNTAKCTSTGWIPAPRCTLKPCDYPDIKHGGLYHENMRRPYFPVAVGKYYSYYCDEHFETPSGSYWDHIHCTQDGWSPAVPCLRKCYFPYLENGYNQNYGRKFVQGKSIDVACHPGYALPKAQTTVTCMENGWSPTPRCIRVKTCSKSSIDIENGFISESQYTYALKEKAKYQCKLGYVTADGETSGSITCGKDGWSAQPTCIKSCDIPVFMNARTKNDFTWFKLNDTLDYECHDGYESNTGSTTGSIVCGYNGWSDLPICYEREGASGCKSSNLIILEEHLKNKKEFDHNSNIRYRCRGKEGWIHTVCINGRWDPEVNCSMAQIQLCPPPPQIPNSHNMTTTLNYRDGEKVSVLCQENYLIQEGEEITCKDGRWQSIPLCVEKIPCSQPPQIEHGTINSSRSSQESYAHGTKLSYTCEGGFRISEENETTCYMGKWSSPPQCEGLPCKSPPEISHGVVAHMSDSYQYGEEVTYKCFEGFGIDGPAIAKCLGEKWSHPPSCIKTDCLSLPSFENAIPMGEKKDVYKAGEQVTYTCATYYKMDGASNVTCINSRWTGRPTCRDTSCVNPPTVQNAYIVSRQMSKYPSGERVRYQCRSPYEMFGDEEVMCLNGNWTEPPQCKDSTGKCGPPPPIDNGDITSFPLSVYAPASSVEYQCQNLYQLEGNKRITCRNGQWSEPPKCLHPCVISREIMENYNIALRWTAKQKLYSRTGESVEFVCKRGYRLSSRSHTLRTTCWDGKLEYPTCAKRGGSGHHHHHH
B6: pCEP4-1NT8-15CT20 (other)
chain: EDCNELPPRRNTEILTGSWSDQTYPEGTQAIYKCRPGYRSLGNVIMVCRKGEWVALNPLRKCQKRPCGHPGDTPFGTFTLTGGNVFEYGVKAVYTCNEGYQLLGEINYRECDTDGWTNDIPICEVVKCLPVTAPENGKIVSSAMEPDREYHFGQAVRFVCNSGYKIEGDEEMHCSDDGFWSKEKPKCVEISCKSPDVINGSPISQKIIYKENERFQYKCNMGYEYSERGDAVCTESGWRPLPSCEEKSCDNPYIPNGDYSPLRIKHRTGDEITYQCRNGFYPATRGNTAKCTSTGWIPAPRCTLKPCDYPDIKHGGLYHENMRRPYFPVAVGKYYSYYCDEHFETPSGSYWDHIHCTQDGWSPAVPCLRKCYFPYLENGYNQNYGRKFVQGKSIDVACHPGYALPKAQTTVTCMENGWSPTPRCIRVKTCSKSSIDIENGFISESQYTYALKEKAKYQCKLGYVTADGETSGSITCGKDGWSAQPTCIKSGASGCSQPPQIEHGTINSSRSSQESYAHGTKLSYTCEGGFRISEENETTCYMGKWSSPPQCEGLPCKSPPEISHGVVAHMSDSYQYGEEVTYKCFEGFGIDGPAIAKCLGEKWSHPPSCIKTDCLSLPSFENAIPMGEKKDVYKAGEQVTYTCATYYKMDGASNVTCINSRWTGRPTCRDTSCVNPPTVQNAYIVSRQMSKYPSGERVRYQCRSPYEMFGDEEVMCLNGNWTEPPQCKDSTGKCGPPPPIDNGDITSFPLSVYAPASSVEYQCQNLYQLEGNKRITCRNGQWSEPPKCLHPCVISREIMENYNIALRWTAKQKLYSRTGESVEFVCKRGYRLSSRSHTLRTTCWDGKLEYPTCAKRGGSGHHHHHH

biological target: C3 convertase complex (UniProt P01024 23-1663; P00751 260-764); assay: cell-based or functional assay
Throughout, for C3 convertase activity % of the control: test concentration or dose not given here.

Sequence of C3 convertase complex (P01024 23-1663, chain 1 of 2): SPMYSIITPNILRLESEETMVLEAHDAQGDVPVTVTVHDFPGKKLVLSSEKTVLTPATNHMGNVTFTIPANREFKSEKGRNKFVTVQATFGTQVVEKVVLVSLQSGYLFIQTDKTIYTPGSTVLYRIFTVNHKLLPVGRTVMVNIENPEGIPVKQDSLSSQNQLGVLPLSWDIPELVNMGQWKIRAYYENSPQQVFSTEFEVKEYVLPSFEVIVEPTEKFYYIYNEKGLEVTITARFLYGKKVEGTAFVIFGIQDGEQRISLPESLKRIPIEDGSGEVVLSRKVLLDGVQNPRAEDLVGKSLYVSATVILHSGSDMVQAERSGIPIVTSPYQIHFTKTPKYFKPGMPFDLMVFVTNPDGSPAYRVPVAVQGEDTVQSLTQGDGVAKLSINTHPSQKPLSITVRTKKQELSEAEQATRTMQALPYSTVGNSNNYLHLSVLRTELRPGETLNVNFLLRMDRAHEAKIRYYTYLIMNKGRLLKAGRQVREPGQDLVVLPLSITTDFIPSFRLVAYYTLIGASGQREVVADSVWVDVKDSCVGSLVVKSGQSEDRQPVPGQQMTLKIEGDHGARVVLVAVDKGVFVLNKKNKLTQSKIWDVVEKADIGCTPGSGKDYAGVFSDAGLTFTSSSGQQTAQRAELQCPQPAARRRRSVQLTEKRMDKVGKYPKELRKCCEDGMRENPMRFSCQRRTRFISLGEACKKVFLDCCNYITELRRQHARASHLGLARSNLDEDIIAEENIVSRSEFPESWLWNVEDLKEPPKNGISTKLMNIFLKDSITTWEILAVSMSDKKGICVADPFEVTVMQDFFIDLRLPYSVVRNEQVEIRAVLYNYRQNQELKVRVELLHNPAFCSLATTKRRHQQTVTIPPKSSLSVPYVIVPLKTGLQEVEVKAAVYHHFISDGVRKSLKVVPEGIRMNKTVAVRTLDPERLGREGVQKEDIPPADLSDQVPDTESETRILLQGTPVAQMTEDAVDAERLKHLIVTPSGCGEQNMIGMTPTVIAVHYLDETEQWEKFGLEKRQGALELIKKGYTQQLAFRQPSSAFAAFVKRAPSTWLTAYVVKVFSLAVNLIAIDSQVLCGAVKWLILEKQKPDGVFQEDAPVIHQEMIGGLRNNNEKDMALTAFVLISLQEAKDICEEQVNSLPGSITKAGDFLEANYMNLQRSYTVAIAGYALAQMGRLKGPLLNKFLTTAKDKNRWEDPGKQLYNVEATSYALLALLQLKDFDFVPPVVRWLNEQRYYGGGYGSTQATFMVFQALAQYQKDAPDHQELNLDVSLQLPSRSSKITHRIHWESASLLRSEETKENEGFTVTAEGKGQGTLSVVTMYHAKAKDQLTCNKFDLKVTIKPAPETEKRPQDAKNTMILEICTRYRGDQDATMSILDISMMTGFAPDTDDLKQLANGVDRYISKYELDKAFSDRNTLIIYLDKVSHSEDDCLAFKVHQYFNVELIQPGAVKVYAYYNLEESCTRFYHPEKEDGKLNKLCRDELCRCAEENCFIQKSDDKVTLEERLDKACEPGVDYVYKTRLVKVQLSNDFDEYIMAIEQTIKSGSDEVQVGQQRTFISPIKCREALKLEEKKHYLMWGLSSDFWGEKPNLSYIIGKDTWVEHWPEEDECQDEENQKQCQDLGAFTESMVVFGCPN
Sequence of C3 convertase complex (P00751 260-764, chain 2 of 2): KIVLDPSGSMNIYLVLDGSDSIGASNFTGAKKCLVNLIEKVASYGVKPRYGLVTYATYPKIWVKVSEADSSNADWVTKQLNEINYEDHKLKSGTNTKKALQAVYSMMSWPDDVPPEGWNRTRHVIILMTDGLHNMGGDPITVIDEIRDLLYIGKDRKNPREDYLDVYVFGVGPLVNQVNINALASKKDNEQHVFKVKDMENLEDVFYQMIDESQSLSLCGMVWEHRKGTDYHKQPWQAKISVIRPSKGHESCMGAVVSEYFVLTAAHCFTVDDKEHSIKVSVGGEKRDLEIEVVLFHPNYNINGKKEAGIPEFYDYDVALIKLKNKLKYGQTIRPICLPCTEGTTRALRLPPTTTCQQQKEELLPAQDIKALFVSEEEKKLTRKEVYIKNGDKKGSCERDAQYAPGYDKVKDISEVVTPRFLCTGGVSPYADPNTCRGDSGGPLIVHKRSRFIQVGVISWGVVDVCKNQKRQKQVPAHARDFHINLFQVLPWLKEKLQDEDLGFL

Going from B1 to B2, the “C3 convertase activity % of the control” value rises from 56 % of the control to 156 % of the control.

Compared with B3, B4 is lower in “C3 convertase activity % of the control” value: 58 % of the control for the first, 49 % of the control for the second.

Compared with B5, B6 is higher in “C3 convertase activity % of the control” value: 56 % of the control for the first, 58 % of the control for the second.

Going from B1 to B2, the “C3 convertase activity IC50” value falls from 0.639 µg/mL to 0.252 µg/mL (2.5-fold).

B3 and B4 are within 1.5-fold of each other in “C3 convertase activity IC50” value: 0.206 µg/mL for the first, 0.217 µg/mL for the second.

Compared with B5, B6 is 3.8-fold higher in “C3 convertase activity IC50” value: 0.166 µg/mL for the first, 0.628 µg/mL for the second.
